Source: the DeepSol protein solubility set

Experiment: soluble on expression in E. coli; label from the status in PepcDB or PDB records

| Sequence | soluble on expression in E. coli |
| --- | --- |
| HSPKVSSQNRTRSFGHFPGPEFLDVEKTSFSQEQSCDSAGEGSERIHQDSESGDELSSSSTEQIRATTPPNQGRPDSPVYANLQELKISQSALPPLPGSPAIQINGEWETHKDSSGRCYYYNRGTQERTWKPPRWTRDASISKGDFQNPGDQEWLKHVDDQGRQYYYSADGSRSEWELPKYNASSQQQREIIKSRSLDRRLQEPIVLTKWRHSTIVLDTNDKESPTASKPCFPENESSPSSPKHQDTDQEKYGLLNVTKIAENGKKVRKNWLSSWAVLQGSSLLFTKTQGSSTSWFGSNQSKPEFTVDLKGATIEMASKDKSSKKNVFELKTRQGTELLIQSDNDTVINDWFKVLSSTINNQAVETDEGIEEEIPDSPGIEKHDKEKEQKDPKKLRSFKVSSIDSSEQKKTKKNLKKFLTRRPTLQAVREKGYIKDQVFGSNLANLCQRENGTVPKFVKLCIEHVEEHGLDIDGIYRVSGNLAVIQKLRFAVNHDEKLDLNDSKWEDIHVITGALKMFFRELPEPLFTFNHFNDFVNAIKQEPRQRVAAVKDLIRQLPKPNQDTMQILFRHLRRVIENGEKNRMTYQSIAIVFGPTLLKPEKETGNIAVHTVYQNQIVELILLELSSIFGR | soluble |
| LDFGALPPEINSGRMYCGPGSGPMLAAAAAWDGVAVELGLAATGYASVIAELTGAPWVGAASLSMVAAATPYVAWLSQAAARAEQAGMQAAAAAAAYEAAFVMTVPPPVITANRVLVMTLIATNFFGQNSAAIAVAEAQYAEMWAQDAVAMYGYAAASASASRLIPFAAPPKTTNSAGVVAQVAAVAAMPGLLQRLSSAASVSWSNPNDWWLVRLLGSITPTERTTIVRLLGQSYFATGMAQFFASIAQQLTFGPGGTTAGSGGAWYPTPQFAGLGASRAVSASLARANKIGALSVPPSWVKTTALTESPVAHAVSANPTVGSSHGPHGLLRGLPLGSRITRRSGAFAHRYGFRHSVVARPPSAG | not soluble |
| DVLAVTSCPSGVAHTFLAAKSLEKAACALGIKIKVETQGANGVINRITEKDIEKAKFVIFAHDVAIKEPERFRKIKVLDVTTKDAMLNATALLQARRVS | not soluble |
| MKRVLIFADIFPPAFAPRAAYLTKYLPRFGWEPFVITEKMPTPASQSHGDVFGGFCSDIPVTAIDLSSASFLSQAIRSARLFGELFWEQKEERFYKEAAKAFPSVKFDAVLCLTYRKFPLATACRYAQAHRLPWVADCRDVIEQYSNYDFLPRGKRLPSLLMKWLRHRYISLRNHYLHKADRVVSVSPWHCNLLAEVNPRTELIYNGYDPELFSRGSLPCGKFILSYTGRLLTPEMHDPTLLFEALASEALQEVRKERRIELHWYVDEYSRSILQPFIRQYALKDMCRFFPMVPAVQVPEILRHSSVLLQLGNTEKPGGPHGIVSTKLFESLAMEKPILMVRSDEAIVADIISEAEAGLAAQTTEEVATFLSDQYTRWKAEGDTSLRNPNRNFISTFSREEEAKQYARLLESIVAN | not soluble |
| MAHHHHHHMLRLCRVSLRVQSHQKKRAQHPNAGTRFGRVYNRGFIRYGFGGFGMSVYTPKKDRRFRVQPLPSLHANSLADDTPLVTTTRTLSPNFRAFALQDGGVFFTHPSHEQVMRVGQNILAEETKATGMTSMDTYVNSRIQSIIAENTVENVALSHWRRRHMWNLVRTHGKLQRHWGVSDATKGARSNIYGRPS | not soluble |
| MRHLFASLAFMLATSTVAHAEKLTLEAITGPLPLSGPTLMKPKVAPDGSRVTFLRGKDSDRNQLDLWSYDIGSGQTRLLVDSKVVLPGTETLSDEEKARRERQRIAAMTGIVDYQWSPDAQRLLFPLGGELYLYDLKQEGKAAVRQLTHGEGFATDAKLSPKGGFVSFIRGRNLWVIDLASGRQMQLTADGSTTIGNGIAEFVADEEMDRHTGYWWAPDDSAIAYARIDESPVPVQKRYEVYADRTDVIEQRYPAAGDANVQVKLGVISPAEQAQTQWIDLGKEQDIYLARVNWRDPQHLSFQRQSRDQKKLDLVEVTLASNQQRVLAHETSPTWVPLHNSLRFLDDGSILWSSERTGFQHLYRIDSKGKAAALTHGNWSVDELLAVDEKAGLAYFRAGIESARESQIYAVPLQGGQPQRLSKAPGMHSASFARNASVYVDSWSNNSTPPQIELFRANGEKIATLVENDLADPKHPYARYREAQRPVEFGTLTAADGKTPLNYSVIKPAGFDPAKRYPVAVYVYGGPASQTVTDSWPGRGDHLFNQYLAQQGYVVFSLDNRGTPRRGRDFGGALYGKQGTVEVADQLRGVAWLKQQPWVDPARIGVQGWSNGGYMTLMLLAKASDSYACGVAGAPVTDWGLYDSHYTERYMDLPARNDAGYREARVLTHIEGLRSPLLLIHGMADDNVLFTNSTSLMSALQKRGQPFELMTYPGAKHGLSGADALHRYRVAEAFLGRCLKP | soluble |
| GPGSMADAYRERALPTLSVLERLRCLRREHVPYASHYCEENAYKLVEALYRDFSLPDHAVFAVFISNDCKSTPVWKQRLGNGRCPLMWDYHVITLVNVGAGDEGGMWAFDQDTTLPFPCEGLRYIEESFHPEMQLDDKYRQRFRVVPGRDYLEYFSSDRSHMKDFDAAQPPWPLIRGCRAPSDMRLGLYVDVHQSSSGEDVKKEQGCGKILSIAELISFVSP | soluble |
| MPKVEIAPSEIKIPDNVLKAKLGFGGAEEIPEEFRKTVNRAYEELLDAAKPVVLWRDFEVDGSLSFDDMRLTGELATKHLSGSKIITVFLATLGKKVDEKIEEYFRKGEDLLAFFIDGIASEMVEYALRKVDAELRMKRSNLEGSFRISPGYGDLPLSLNKKIAEIFKEEVDVNVIEDSYVLVPRKTITAFVGWREKNEKQT | not soluble |
| MDDSREESQFIVDDVSKTIKEAIETTIGGNAYQHDKVNNWTGQVVENCLTVLTKEQKPYKYIVTAMIMQKNGAGLHTASSCYWNNDTDGSCTVRWENKTMYCIVSVFGLAV | soluble |
| MGSDKIHHHHHHMTLGIAFVGSGFSAKFHLRGLVGVRNVEVKGVYSRNLNSSKEFAMLSEQLGLGKPKVYSDISKMLSDKEINAVWLTVPNDVHLEYTKLIAEEVSQGRSNIHGITIEKPLARNVKEAKEMIRLVEKAGLLHGYLENQIFMPSVVRAREAIWEIGSRNSGRPYLARAAEEHSGPHNSWFWRPTISGGGALIDMTCHSLEATRFLLTDPAKTKSSLKPKTVYAETKTLKWNKKEYAQYLKEKYNVDFLKEPAEDYALTIVTYEDDLGNSVLAETRTSWNYVGPGLRLSVEVLGPEYSVNINTLQSELSVFFSRNIKLPQSEAFVEKQNADQGLMPIILDEAVVYGYQGEDRHMVESFISRKMPFENWYDGLLIVQLMMHAYLSAENGRKISFDPQKVEDFIPKVARGLYSAF | not soluble |
| MSLNETYMMITFQSGMDYWKRCLKGFEDAAQALNVTVEYRGAAQYDIQEQITVLEQAIAKNPAGIAISAIDPVELTDTINKAVDAGIPIVLFDSGAPDSHAHSFLGTNNYNAGMNAAYKMAELLDGEGEVAVITLPNQLNHQERTTGFKETLEAEFPAIEVIAVEDGRGDSLHSRRVAHQLLEDYPNLAGIFATEANGGVGVGDAVRLESRAGEIQIISFDTDKGTLDLVDEGIISATLAQGTWNMGYWSLTYLFHLHHGLTEPQILQTREEAPLPLYVDTGITIVTDENVDYYYADEGHHHHHH | soluble |
| MSGGEAQGKRKQWQRWLSPRYVWRRLRHNIGPKLVSLGAALVLWSVSTGDQRAQVQQSYDVPITVRDTTGASGSDERRAVSDLNPETVRVTLTGRPERLNELRPSNIEALLDVTGVPEGSFNRPVQIVAPSNTVLSKQVPERVQGFVDSELSRTLTVTLGVASPAENSLPRFEVRPSEVQATAPSRVLNQVTRVVTSPVDLDPGEEREAPLIALDSRGRVVEPVTLHPASVSVQRLDTGTLPVKTLPVVLGAPPASLRVQSQTLQPRTVRVVAAPELLGRLREVSGQVDYRVGSSTLPVTLRLPDGAQALETVSVSLVVERIKAPDPGAGAPTQQKSGASSSSGGNLEHHHHHH | soluble |
| MGKGVAFFSGGKDGLYALYLAEEMGIEVPYLLVLKTSIGLSPHWENLDALKTLAKVMEREILTFDMRRGSKALAEFISSLDVDYLIAGDVYLEDHILWVKSLAEEANVKPLEPLWGRNTRKLAEEMLREGFNWAIIAVDKRKLGKEWLGYTFRSIEDLENFLRANPNVDPLGEVGEFHTVVLNSPLFALNFELKVESIEEDERYWWLRFELREVEKWNLNS | soluble |
| MGLKDQAVTWRRYFHQFPELSDKEFKTTQKIKDILTEHHIRILDLPLATGLVAEVGQGLSCIAVRADIDALPIQELVEQDFKSENEGVMHACGHDIHMASILATAVKLKEIEGTLTGRVKFIFQSAEELGHGAFKIIETHALKDVQAVLGFHNDPSRSVGTFAIKTGAITSAVDRFEFHIKGVGGHAAKPEQCNDPVIVLAQLINSIQSIVSRNLSAFDEAVVTIGQISCGNTWNVIADHAYVQGTVRSFDPVVRKLVETRLQDIADGLAQAYNMKINLNYTHLPGAVMNDEALTHKAIAVAQHVGYKVEMMEQPLTIGEDFSGYSQHFPSVFALIGSHSEYDLHHPQYKPDERILEKVPEYFVEFVKRLLHE | not soluble |
| MQRARCYLIGETAVVLELEPPVTLASQKRIWRLAQRLVDMPNVVEAIPGMNNITVILRNPESLALDAIERLQRWWEESEALEPESRFIEIPVVYGGAGGPDLAVVAAHCGLSEKQVVELHSSVEYVVWFLGFQPGFPYLGSLPEQLHTPRRAEPRLLVPAGSVGIGGPQTGVYPLATPGGWQLIGHTSLSLFDPARDEPILLRPGDSVRFVPQKEGVC | soluble |
| MSITLSDSAAARVNTFLANRGKGFGLRLGVRTSGCSGMAYVLEFVDEPTPEDIVFEDKGVKVVVDGKSLQFLDGTQLDFVKEGLNEGFKFTNPNVKDECGCGESFKLAAALDHHHHHH | soluble |
| GPGSMGLTQDQTQRVKTAFLSYAQGQPKVSEAMMDQLICGAIPGLSWEQLQAKKAVRKVGADGYDLGAFFAMVNSDPAYIAFIQQHFPPAPPEQKEPEVDALALKTAKGF | soluble |
| MYKIVTVKDVVRIPPRMFTMDPKEAAMLVLRDTYEGTYDRDEGVILSIVEVKEVGDGIIVPGDGATYHEVVFDVLVWEPKRDEVVEGTVVDVVPFGAFIRIGPMDGLVHISQLMDDYVVYDERNKQFVGKEKKYLLKIGDAVRARIITVSPKSRVIRENRIGLTMRQPGLGKFEWIEKEKRKEKEGKK | soluble |
| MSLKIAIVNDMPMAVEALRRALAFDPSHEVVWVATNGAEAVKYCAELTPDLILMDLIMPVMDGVEATRRIMAESPCAIVIVTVDRQQNVHRVFEAMGHGALDVVDTPALGAGNAQEAAAPLLRKILNIGWLIGQRGSRVRSAPQPLRSGAPRQSLVAIGSSAGGPAALEVLLKGLPKDFAAAIVLVQHVDQVFAAGMAEWLSSASGLEVRLAREGEPPQSGKVLLAGTNHHIRLLKNGTLAYTAEPVNEIYRPSIDVFFESVASFWNGDAVGVLLTGMGRDGAQGLKLMRDQGYLTIAQDQNSSAVYGMPKAAAAIGAASEIRPLDKIAPRLLEIFAKEGHHHHHH | soluble |
| AGLPRNAVTAVVPSPFHHAEAGVLRVPDLKADPRNAAEHTAAIIRELPELVKGARGSLVLFSSRKQMQEVFDGLDRDWRKRVFIQGNLSKQETLNKHKSRVDDGEDSVLFGLASFAEGVDLPGAYCEHVVIAKIPFAVPDDPVEAALAEWIEARGGNPFMEIAVPDASLRLVQACGRLLRTEQDRGTITLLDRRVVTQRYGKAILNALPPFRREIA | not soluble |
| MGDSAPARIDTLEIKLLFAGDIMTHGPQIESAKCEGGRVYDFSSSFDTLASRIGAADLAIGNLETTFAGAPYSGYPTFSSPDAMGEALKNAGFDVLTTANNHTADKGKKGIIRTLDMLDSLGIAHTGSYRDIFDRDKMTPLILEVKGVRIAILAYTYGTNGMPVPAPTWVDPIDTVMIKKDLLRADSLGADYRIVQIHWGIEYRKEPDSEQLELARKLHRYGADAIIGSHPHVVQGSQWLKSDSKTSFVIYSMGNFISNQRKPAATRGGMLLSLTLRKVGDRITTHPDYQYVFVNKRTPQGKRVYRLLPVDPFSSDTLPSLPPEEQRDYKEFAKYYQMIPLVLIEREDNRIRNRLQVSQRAFLEHHHHHH | not soluble |
